Laboratory results reported in the nanobody polyreactivity screen of Harvey et al. (2022).

Experiment: yeast display, Sf9 membrane polyspecificity reagent, FACS + sequencing; frameworks hold sequencing errors
Procedure, shortened: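 Galactose-induced (36–48 hours) yeast carrying a synthetic nanobody display library were exposed to 10% biotinylated, detergent-solubilized Sf9 membrane reagent at 4 °C for 1 hour. FACS followed streptavidin microbead enrichment, using low and high (top ~1%) gates for expression (anti-HA) and reagent binding (streptavidin). Colony PCR, MiSeq 2 × 250 sequencing and CDR-length filtering followed. Labels for polyreactivity reflect the gate of origin.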

Row | Sequence | polyreactivity (PSR sort gate)
1 | QVQLVESGGGLVQAGGSLRLSCAASGSTFDLYAMGWYRPAPGKERELVAAITSSGGRTYYADSVKGRFTISRDNAKNTVYLQMNSLKPEDTAVYYCAATSSGGYYDGYNYWGQGTQVTVSS | high polyreactivity
2 | QVQLQESGDGLVQAGGSLRLSSAASGTIFSDYGMGGYRQAPGKERELLAGISDGCNTNYTDSVKGRFTISRDNAHRVSADELPETGVYRGVLLRGCERWLLFYVYWGQGTQVTVSS | high polyreactivity
3 | QVQLVESGGGLVQAGGSLRLSCAASGSIFRRKAMGWYRQAPGKERELVAAIRRGGSTNYADSVKGRFTISRDNAKNTVYLQMNSLKPEDTAVYYCAARGGSSGFYYWGQGTQVTVSS | high polyreactivity
4 | QVQLVESGGGLVQAGGSLRLSCAASGRTFFSYAMGWYRQAPGKERELVAAISRRGSSTYYADSVKGRFTISRDNAKNTVYLQMNSLKPEDTAVYYCAADVVRGSRYNRYGYWGQGTQVTVSS | high polyreactivity
5 | QVHIVESGGGLVQAGGSLRLSSAASGRIFYRYAMGWYRQAPGKERELVAAISRRGGSTYYADSVKGRFTISRDNAKNTVYLQMNSLKPEDTAVYYCNVYRSAFSYDSWGQGTQVTVSS | high polyreactivity
6 | QVHLVESGGGLVQAGGSLRLSCAASGSTFYENAMGWYIQAPGKERELVAGISRGGGSTYYADSVKGRFTISRDNAKNTVYLQMNSLKPEDSAVYYCAAGSRVQGGYWGQGTQVTVSS | low polyreactivity
7 | QVQLVESGGGLVQAGGSLRLSCAASGYIFYAYAMGWYRQAPGKERELVAAISSGGGRTYYADSVKGRFTISRDNAKNTVDLQRNSLKPEDTAVYYCAARRRDRGEYYYWGQGTQVTVSS | high polyreactivity
8 | QVQLVESGGGLVQAGGSLRLSCAASGFTFQYYAKGWYRQAPGKERELVAAISSSGGSTFYADSVKGRFTSSRDNAKNTVYLQMNSLKPEDTAVYYCATYTSPGYYYWGQGTQVTVSS | high polyreactivity
9 | QVQLVESGGGLVQAGGSLRLSCAASGSTFNYYAMGWYRQAPGKERELVAAISSRSSRTFYADSVKGRFTISRDNEKNTVYLQMNSLKPEDTAVYYCAVKKRAPDGDYWGQGTQVTVSS | high polyreactivity
10 | QVQLVEAGGGLVQAGGSLRLSCAASGRTFPVNPMGGYRQAPGKERELVAAISKRAGSTYYADSVKGRFTISRDNAKNTVYLQMNSLKPEDTAVYYCAARWRVIYAEFDYWGQGTQVTVSS | high polyreactivity
11 | QVQLVESGGGLVQAGGSLRLICAASGFIIYSYAMGWYRQAPGKERELVAGITSDGRTYYADSVKGRFTISRDNAKNTVYLQMNSQKPEDTAVSYCAARYYLFYRVSPYYYWGQGTQVTVSS | low polyreactivity
12 | QVQLVESGGGLVQAGGSLRLSCAASGRIFVPNNMGWYRQAPGKERDLVAAISSGGSTYADSVKGRFTISRDNAKNTFYLQLNSLKPEDTAVYYCAVGKYGTQFTQWVRKYDYWGQGTQVTVSS | low polyreactivity
13 | QDQLVDSGGGLVQAGGSLRLSCAASGSIFPIYAMGGYRQAPGKERELVAAIDWGDGSTSYADSVKGRFTISRDNAKNTVYLQMNSLKPEDTAVYYCAARSVFDLVYYNLIFDYWGQGTQVTVSS | high polyreactivity
14 | QVQLVESGGGLVQAGGSLRLSCAASGSTSTLYAMGWYRQAPGKERELVAAISKSGGRTYYADSVKGRFTISRDNAKNTVYLQMNSLKPEDTAVYYCNTVPGRYRTFDYWGQGTQVTVSS | high polyreactivity
15 | QVQLVESGGGLVQAGGSLRLSCAASGSILGLYAMGWYRQAPEKERELVAGISSGGNTNYADSVKGRFTISRDNAKNTVYLQMNSLKPEDTAVYYSYDRIYRHYSTYSWTRYDYWGEGTQVTVSS | high polyreactivity
16 | QVQLVESGGGLVQAGGSLRLSCASSGSTIYYNAMGWYRQAPGKERELVAAISNAGSTYYADSVKGRFTISRDNAENTVYLQMNSLKPEDTAVYYCAKRFRGITYSYYYWGQGTQVTVSS | high polyreactivity
17 | QVQVVESGGGLVQAGGSLRLSCAASGSIFDRNAMGWYRKAPGKERELVAGISRSGGSTNYADSVKGRFTISRDNAKNPVYLQMNSLNPEDTAVYYCAASRVVWVGRPWYQVRGDYWGQGTQVTVSS | high polyreactivity
18 | QVQLVDSGGGLVQAGGSLRLSCASSGIIFGYYAMGWYRPAPGKERELVAGITYRTGSTDYADSVKGRFTISRDNAKNTVYFQMNSLKPEDTAVYFCAATQDKRKYSSCYYYWGQGTQVTVSS | high polyreactivity
19 | QVQLVESGGGLVQAGGSLRLSCAASGITFAYKAMGWYRQAPGTERELVARITSGGRTYYSDSVKARFTISRDNAMNTVYLQMNSLKPEDTAVYYCNAKEGSRYRKYDYWGQGTQVTVSS | low polyreactivity
20 | QVQLVESGGGLVQAGGSLRLICAASGSTFAQNTMGWYRQAPGKERELVATISDGGGSTYYADSVKGRFTISRDNAKNTVYLQMNSLKPEDTSVYYCNTDRFWPSDFWGQGTQVTVSS | low polyreactivity
21 | QVQLVESGGGLVQAGGSLRLSCAASGFIFYAYAMGWYRQAPGKEREFVAAISARGGNTYYADSVKGRFTISRDNAKNSVYLQMNSLKPEDTAVYYCAIYGGYYYLSGYYYWGQGTQVTVSS | high polyreactivity
22 | QVQLVESGGGLVQAGGSLRLSCAASGRIFPYYAMGWYRQAPGKERELVAAINRGGSTNYADSVKGRFTISRDNAKNTVYLQMNSLKPEDTAVYYCAALSRTHGVSYDYWGQGTQVTVSS | high polyreactivity

Row | Sequence | polyreactivity (PSR sort gate)
23 | QVQLVESGGGLVQAGGSLRLSCAASGFTFDFNAMGWSRQAPGKERELVAAISSGASTNYADSVKGRFTISRDNAKNTVYLQMNSLKPEDTAVYYCAARSRTPGWYSTISRKMYWGQGTQVTVSS | high polyreactivity
24 | QVQLVESGGGLVQAGGSLRLSCAASGSTYYRYTMGSYRQAPGKERELLAAITSGGGTDYADSVKGRFTISRDNAKNTVYLQMNSLKPEDTAVYYCAAEGSWYSYPDYDYWGQGTQVTVSS | low polyreactivity
25 | QVQLVESGGGLVQAGGSLRLSCAASGSISSNAMGWYRQAPGKERELVAAISGSVGSTYYADSVKGRFTISRDNAKNTVYLQMNSLKREDTAVYYCAADAEAGRYVYGASSELGYDYWGQGTQVTVSS | low polyreactivity
26 | QVQLVESGGGLVQAGGSLRLSCAASGRIFARYAMGWYRQAPGKERELVAAITVSGDNTYYADSVKGRFTISRDNAKNTVYLQMNSLKPEDTAVYYCNAYFLVHYRRLRPYDYWGQGTQVTVSS | low polyreactivity
27 | QVQLVESGGRLVQAGGSLRLSCAASGRTFLVNDMGWYRQAPGKERELVAAINYNAGSTFYADSVKGRFTISRDIAKNTVYLQMNSLKPEDTAVYYCATDVYGYVEYDYWGQGTQVTVSS | low polyreactivity
28 | QVQLVESGGGLVQAGGSLRLICAASGIFSYYARGWYRQAPGKERELVATISRRGSSTYYADSVKGRFTISRDNAKNTVYLQMNSLKPEDTAVYYCNADIGWGRFSQSFDYWGQGTQVTVSS | low polyreactivity
29 | QVQLVESGGGLVQAGGSLRLSCAASGFIFRLYAMGWYRQAPGKERELVAAITWSGGSTYYADSVKGRFTISRDNAKNTVYLQMNSLKPEDTAVYYCAAYATKNAFEYWGQGTQVTVSS | high polyreactivity
30 | QVQLVESGGGLVQAGGSLRLSCAASGSTFDAYAMGWYRQAPGKERELVAAITWSGGSTYYADSVKGRFTISRDNAKTTVYLQMNSLKPEDTAVYYCAAYYLIFYFEFDYWGQGTQVTVYS | low polyreactivity
31 | QVQLVESGGGLVQAGGSLRLSCAASGRIFTHNAMGWYRQAPGKERELVAAITSGGRTTYADSVKGRFTFSRDNAKNTVYLQMIRLKPEDTAVYYCNADTGLGSLDFDNRDYWGQGTQVTVSS | low polyreactivity
32 | QVQLVESGAGLVQAGGSLRLSCAASGRIVYYVMGWYRQAPAKEMELVAAISTRGGSTYYADSVKGRFTISRDNAKNTVYLQINSLKPEDTAVYYCAASSLLTRFNSWGQGTQVTVSS | high polyreactivity
33 | QVQLVESGGGLDQAGGSLRLICAASGTTFSPYAMGWYRQAPGKQRELGANITISGGSTFYADSVKGRFTISRDYAKNTDYLQMKSLKPEDTAVDYCNADSLIRWLFTVVIFDYCGQGTQVTVSS | low polyreactivity
34 | QVQLVESGGGLVQAGGSLRLSCAASGSISYFNAMGWYRQAPGKERELVAAITSGGSTYYADSVKGRFTISRDNAKNTVYLQMNSLKPEDTAVYYCNAPLEWGVYAAQNWDDGYWGQGTQVTVSS | low polyreactivity
35 | QVQLVESGGGLVQAGGSLRLSCAASGRTFYYNAMGWYRQAPGKEREFVAAIRYSGGITYYADSVKGRFTISRDNAKNTVYLQMNSQKPEDTAVYYCAADYVSRRYYYWGQGTQVTVSS | high polyreactivity
36 | QVQLVESGGGLVQAGGSLRLSCAASGIIFKTYTMGWYRTAPGKERELVAAITFSGGSTYYADSVKGRFTISRDNAKNTVYLQMNSLKPEDTAVYYCADTHRFWWYSDDYWGQGTQVTVSS | high polyreactivity
37 | QVQLVESGGGLVQAGGSLRLSCAASGSTFYLNAMGWYRQAPGKERELVAAISSSGGSKYYADSVKGRFTISRDNAKNTVYLQMNSLKPEDTAVYYCACSCFPAVSVYGGDYWGQGTQVTVSS | low polyreactivity
38 | QVQLVESGGGLVQAGGSLRLSCAASGRTFPGNAMGGYRQAPGKERELVAAISSRGGSTYYADSVKGRFTISRDNAKNTVNLQMKSLKPEDTAVYYCNAASNYRVRRTYHGDYWGLGTQVTVSS | high polyreactivity
39 | QVQLVESGGGLVQAGGSLRLSCAASGLIFGGNAMGWYRQAPGKERELVAAITYRTGSTYYADSVKGRFTISRDNAKNTVYLQMNSLKPEDTAVYYCAAAVSLGYPVAFYYWGQGTQVTVSS | low polyreactivity
40 | QVQLVESGGGLVQAGGSLRLSCAASGRIFYRYAMGWYRQAPGKERELVAAIRSGGRTNYADSVKGRFTISRDNAKNTVYLQMNSLKPEDTAVYYCNAVWRYYRKRRAGDFGYWGQGTQVTVSS | low polyreactivity
41 | QVQLVESGGGLVQAGGSLRLSCAASGFTFIRYAMGWYRQAPGKERELVARITSGGSTYYADSVKGRFTISRDNAKNTVYLQMNSLKPEDTAVYYCNADKWYIIQGYYWPGYEYWGQGTQVTVSS | low polyreactivity
42 | QVQLVESGGGLVQAGGSLRLSCAASGFIFKIYAMGWYRQAPGKERELVATISRGGSTYYADSVKGRFTISRDNAKNTVYLQMISLNPVDTAVYYCADVFYYPPFLYNYWGQGTQVTVSS | high polyreactivity
43 | HVQLVESGGGLVQAGGSLRLSCAASGRIFKYYAMGWYRQAPGKERELLAAITYSGGSTNYADSVKGRFTISRDNAKNTVYLQMKSLKPEDTAVYYCNAYSYRNFLSHYNYWGQGTQVTVSS | high polyreactivity
